Data taken from patent US20170049848A1, “Target for Firmicutes and Related Bacteria: The PRP Protease” (VIRGINIA COMMONWEALTH UNIVERSITY, priority 2014, published 2017).
Primed or numbered codes have the meaning given here. Where no end group is shown, it is not given here. [ ]: non-standard residue; d: D form. Dnp″ = dinitrophenol quencher on C-terminus; 2Abz = Nc1ccccc1C(=O)O

Legend:
S. aureus strain SA178RI = experiment: Growth curves of S. aureus strains over-expressing Prp, L27 variants or peptide; assay type: cell-based, Staphylococcus aureus; conditions: T7 plasmid in SA178RI, induced with IPTG, 16 hours at 32° C.; strain still contains native L27 and Prp; compared with wild-type protein or empty vector
Source text: Bacterial Culture. All S. aureus strains used in this work are derivatives of the phage-cured, restriction-defective strain RN4220 (Kreiswirth, 1983). The S. aureus expression strain SA178RI carries a T7 RNA polymerase expression cassette under lac operator control (D'Elia, 2006). The plasmid used for expression in SA178RI was pG164, an E. coli-S. aureus shuttle vector carrying the T7 late promoter into which a lac operator, a multiple cloning site, an optimized gram-positive ribosome binding site, and a constitutively expressed copy of the lac repressor gene were introduced (D'Elia, 2006). S. aureus strains were grown in Trypticase Soy Broth (TSB) (Remel, Lenexa, Kans.) or Brain Heart Infusion (BHI) (Remel, Lenexa, Kans.) at 32° C.
For growth curve analysis of mutant over-expression strains, overnight cultures were inoculated directly into media containing inducer and appropriate antibiotics (TSB with 2 μg/ml tetracycline, 30 μg/ml chloramphenicol and 1 mM IPTG) and monitored at OD600 for 16 hours in a 96 well plate format Biotek Microplate reader.
Both L27 and Prp are essential in S. aureus. One common approach is to examine the effects of mutations in essential genes is to over-express mutant allele and assess the resulting phenotypes. […]

[1] = tested on: S. aureus ribosome assembly (70S ribosomes, 50S subunit); experiment: Polysome analysis (sucrose gradient ribosomal subunit profiles) of over-expression strains; assay type: cell-based, Staphylococcus aureus; conditions: overexpression in S. aureus SA178RI, compared with empty vector
Method: Polysome analysis. Overnight cultures of strains for polysome analysis were inoculated into a flask of media containing inducer and appropriate antibiotics (TSB with 2 μg/ml Tet, 30 μg/ml Chl and 1 mM IPTG) beginning at a 1:100 dilution and grown until they reached a Klett reading of 90 or for 4 hours. As noted above, S. aureus expressing Prp C34A will not grow above Klett 50 for over 8 hours, so this strain was grown at a double volume compared to the others so that an equivalent number of cells could be harvested. Cell pellets from at least 100 ml of culture were resuspended in buffer PA (20 mM Tris pH 7.8, 100 mM NH4Cl, 10 mM MgCl2, 6 mM beta mercaptoethanol), broken by bead beating and then cleared by centrifugation for 10 minutes at 13000 rpm at 4° C. The clarified cell lysates were applied to the top of 10-40% sucrose gradients in buffer PA. The gradients were centrifuged for 17 hours at 19000 rpm on an SW-28 rotor at 4° C. Gradients were analyzed for absorbance at 254 nm using a Biocomp Piston Gradient Fractionator with a BIORAD Econo UV Monitor with a Full Scale of 1.0. Data were recorded using DataQ DI-158-UP data acquisition software, as has been previously reported (O'Farrell, 2012). Areas under each peak were calculated using the trapezoid method. […]

[2] = Stability of quenched peptide substrate in solution; assay type: physicochemical; conditions: monitored in solution over time, without enzyme
Source text: (§1) Development of Prp Assay In order to study Prp enzymology in vitro, an assay was designed using a quenched fluorescent peptide substrate derived from the cleavage motif on L27. The peptide KLNLQFFASKK (GI:15927225; SEQ ID NO:1) was chosen for its content of hydrophilic residues and fluorophore 2-amino benzoic acid (2-abz) was conjugated to the N terminus, with a dinitrophenol (Dnp) quencher conjugated to the C-terminus. The resulting peptide substrate (2abz-KLNLQFFASKK-Dnp; SEQ ID NO:1) was ordered from United Peptide in Herndon, Va. (now United Biosystems). The substrate was initially resuspended to 2 mM with a buffer containing 25 mM Tris pH8 and 300 mM NaCl. Fluorescence was measured using an excitation wavelength of 325 nm and an emission wavelength of 425 nm using a Photon Technology International QuantaMaster steady-state fluorescent spectrometer. Prp was initially purified and analyzed as a His6-SUMO N-terminal fusion protein from plasmid pEW34. His6-SUMO fusions were also made of PrpC34A (pEW39) and PrpC34S (pEW40).
The amino acid sequence of the substrate was selected to maximize its hydrophilic residue content, aiming for the greatest possible peptide solubility. […] The assay allows us to determine Prp kinetics, and the effects of any mutants on the Km or Kcat.

[3] = target: Staphylococcus aureus L27 F8A-F9A with C-terminal Myc and His6 tags (un-cleavable), Q2FXT0
[4] = tested on: peptide substrate 2abz-KLNLQFFASKK-Dnp (L27 cleavage motif); experiment: Quenched fluorescent peptide Prp assay; assay type: biochemical, Staphylococcus aureus; conditions: N-terminal His6-SUMO fusion proteins; excitation 325 nm, emission 425 nm
Source text: as §1, with “His6-SUMO fusions were also made of PrpC34A (pEW39) and PrpC34S (pEW40).” left out
In order to test the predictions that our model makes regarding residues important to substrate binding and catalysis and ultimately to search for inhibitors, it was necessary to design a high throughput-capable continuous fluorescent assay. […] In this type of assay, when the substrate is cleaved the fluorophore is released from its quenching partner and fluorescence readings at the fluorophore emission wavelength increase with time. […]

[5] = target: T1, 2abz-KLNLQFFASKK-Dnp quenched fluorescent peptide substrate
T1 chain: KLNLQFFASKK

Molecule: MLKLNLQFF
- effect on S. aureus growth upon overexpression (S. aureus strain SA178RI): pronounced lag in the middle of the exponential growth phase
- effect on ribosomal subunit profile [1]: no anomalies

Molecule: 2abz-KLNLQFFASKK-Dnp ([2Abz]KLNLQFFASKK-{Dnp″}) [quenched fluorescent peptide substrate, 2-amino benzoic acid at N terminus, dinitrophenol quencher at C-terminus]
- stability of peptide in solution [2]: stable and did not self-cleave or change fluorescence over time

B1: Staphylococcus aureus Prp (phage-related ribosomal protease), wild type, untagged (protein)
chain: MITVDITVNDEGKVTDVIMDGHADHGEYGHDIVCAGASAVLFGSVNAIIGLTSERPDINYDDNGGHFHIRSVDTNNDEAQLILQTMLVSLQTIEEEYNENIRLNYK
- N-terminal cleavage of L27 (Western blot) [3]: this protein with N-terminal residues […] was no longer cleaved by Prp via Western blot

B2: wild-type Prp: S. aureus phage-related ribosomal protease, cysteine protease that cleaves L27 (protein)
chain: B1 chain
- effect on ribosomal subunit profile [1]: did not deviate significantly from empty vector
- fluorescence increase / catalysis with quenched peptide substrate [4]: fluorescence increase only occurred in the presence of wild type Prp

B3: His6-SUMO-Prp N-terminal fusion protein (wild type) (protein)
chain: B1 chain
- fluorescence increase in the quenched fluorescent peptide assay [5]: fluorescence increase only occurred in the presence of wild type Prp fusion proteins
